In the supplement of paper PMC11811203:

B1: THAP1; numbered along this chain (parent)
chain: MVQSCSAYGCKNRYDKDKPVSFHKFPLTRPSLCKEWEAAVRRKNFKPTKYSSICSEHFTPDCFKRECNNKLLKENAVPTIFLCTEPHDKKEDLLEPQEQLPPPPLPPPVSQVDAAIGLLMPPLQTPVNLSVFCDHNYTVEDTMHQRKRIHQLEQQVEKLRKKLKTAQQRCRRQERQLEKLKEVVHFQKEKDDVSERGYVILPNDYFEIVEVPA

Variants of: B1
Experiment: THAP1 transcriptional activity (GFP+/GFP- enrichment relative to wild-type constructs) (ratio to WT); higher = more THAP1 activity (PSMB5 reporter activation)
Settings: with PSMB5 promoter-GFP reporter
How it was run: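 In duplicate, a lentivirus-delivered library with every residue from 2–213 of human THAP1 changed to all 20 amino acids was introduced at MOI ~0.3 into THAP1-knockout HEK-293T cells carrying endogenous PSMB5 tagged by mClover3 knock-in. Five days on, BFP+ cells were binned as GFP-dim or GFP-bright, and Illumina sequencing of genomic DNA amplicons counted each variant. Activity is the bright/dim read fold change, averaged over replicates and scaled to the mean of wild-type synonymous constructs.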
Work on Q176V yielded a THAP1 transcriptional activity of 0.499. For N136Q, the THAP1 transcriptional activity was 0.102. Work on N136M yielded a THAP1 transcriptional activity of 0.134. For N136H, the THAP1 transcriptional activity was 0.131. F45Q was tested, and the THAP1 transcriptional activity was 0.128. Variant F45N has a THAP1 transcriptional activity of 0.108. Variant F45M has a THAP1 transcriptional activity of 0.12. In the case of D191W, the THAP1 transcriptional activity is reported as 1.06. For D191L, the THAP1 transcriptional activity was 1.26. Work on S55V yielded a THAP1 transcriptional activity of 0.101. S55R gave a THAP1 transcriptional activity of 0.113. S55N was tested, and the THAP1 transcriptional activity was 0.147. For S55M, the THAP1 transcriptional activity was 0.0662. S55A was tested, and the THAP1 transcriptional activity was 0.112. A114F showed a THAP1 transcriptional activity of 0.602. D192V gave a THAP1 transcriptional activity of 1.22. D192T gave a THAP1 transcriptional activity of 1.12. With D192F the THAP1 transcriptional activity was 0.716. For F22A, the THAP1 transcriptional activity was 0.115. With F22H the THAP1 transcriptional activity was 0.12. F22S gave a THAP1 transcriptional activity of 0.0454. F22W showed a THAP1 transcriptional activity of 0.125. Work on S6G yielded a THAP1 transcriptional activity of 0.123. For S6T, the THAP1 transcriptional activity was 0.309. Work on S6N yielded a THAP1 transcriptional activity of 0.174. For I53C, the THAP1 transcriptional activity was 0.164. Variant I53H has a THAP1 transcriptional activity of 0.1. For Q151N, the THAP1 transcriptional activity was 0.636. P96W was tested, and the THAP1 transcriptional activity was 0.452. P96S showed a THAP1 transcriptional activity of 1.72. P96V gave a THAP1 transcriptional activity of 0.729. S110I was tested, and the THAP1 transcriptional activity was 0.783. Work on S110M yielded a THAP1 transcriptional activity of 0.337. E98Y showed a THAP1 transcriptional activity of 0.675. E98N was tested, and the THAP1 transcriptional activity was 1.21. Y8I was tested, and the THAP1 transcriptional activity was 0.484. For Y8S, the THAP1 transcriptional activity was 0.467. E56C was tested, and the THAP1 transcriptional activity was 0.263. E56K was tested, and the THAP1 transcriptional activity was 0.472. Variant C62F has a THAP1 transcriptional activity of 0.151. Q99V showed a THAP1 transcriptional activity of 0.773. For Q99T, the THAP1 transcriptional activity was 1.16. Y198L gave a THAP1 transcriptional activity of 1.02. In the case of E174S, the THAP1 transcriptional activity is reported as 0.847. Y50V was tested, and the THAP1 transcriptional activity was 0.12. Work on Y50Q yielded a THAP1 transcriptional activity of 0.0845. With K181M the THAP1 transcriptional activity was 0.542. With M143I the THAP1 transcriptional activity was 0.679. M143F showed a THAP1 transcriptional activity of 0.339. N44Y gave a THAP1 transcriptional activity of 0.297. V199W was tested, and the THAP1 transcriptional activity was 0.95. V199R gave a THAP1 transcriptional activity of 0.478. V199T showed a THAP1 transcriptional activity of 0.697. G197N was tested, and the THAP1 transcriptional activity was 1.56. For N69H, the THAP1 transcriptional activity was 0.344. In the case of N69F, the THAP1 transcriptional activity is reported as 0.109. With H23S the THAP1 transcriptional activity was 0.127. H144C gave a THAP1 transcriptional activity of 0.498. In the case of H144N, the THAP1 transcriptional activity is reported as 0.686. Work on T142H yielded a THAP1 transcriptional activity of 0.658. A39G gave a THAP1 transcriptional activity of 0.131. With A39D the THAP1 transcriptional activity was 0.172. A39I showed a THAP1 transcriptional activity of 0.271. In the case of K34G, the THAP1 transcriptional activity is reported as 0.217. Variant P122G has a THAP1 transcriptional activity of 0.667. Work on E178N yielded a THAP1 transcriptional activity of 0.394. For E178T, the THAP1 transcriptional activity was 1.26. Work on E178A yielded a THAP1 transcriptional activity of 0.976. With W36D the THAP1 transcriptional activity was 0.159. W36K was tested, and the THAP1 transcriptional activity was 0.123. I200L showed a THAP1 transcriptional activity of 1.27. For L152N, the THAP1 transcriptional activity was 0.287. K64R showed a THAP1 transcriptional activity of 1.06. In the case of K64D, the THAP1 transcriptional activity is reported as 0.151. R148P gave a THAP1 transcriptional activity of 0.18. For R148T, the THAP1 transcriptional activity was 0.312. For D15E, the THAP1 transcriptional activity was 0.569. Work on K147Y yielded a THAP1 transcriptional activity of 0.522. In the case of K147G, the THAP1 transcriptional activity is reported as 0.51. T48E was tested, and the THAP1 transcriptional activity was 0.0991. Work on T48M yielded a THAP1 transcriptional activity of 0.138. Variant T48S has a THAP1 transcriptional activity of 0.729. Variant R13E has a THAP1 transcriptional activity of 0.153. With R13P the THAP1 transcriptional activity was 0.0852. In the case of R13C, the THAP1 transcriptional activity is reported as 0.132. For R13S, the THAP1 transcriptional activity was 0.133. Variant R13M has a THAP1 transcriptional activity of 0.0992. E140P gave a THAP1 transcriptional activity of 3.02. For E140L, the THAP1 transcriptional activity was 1.81. Y137V gave a THAP1 transcriptional activity of 0.0934. Y137S gave a THAP1 transcriptional activity of 0.137. Y137F gave a THAP1 transcriptional activity of 0.161. For S194A, the THAP1 transcriptional activity was 0.876. In the case of S194R, the THAP1 transcriptional activity is reported as 0.998. G9L showed a THAP1 transcriptional activity of 0.184. Y205A was tested, and the THAP1 transcriptional activity was 1.86. Y205E showed a THAP1 transcriptional activity of 1.09. In the case of F63D, the THAP1 transcriptional activity is reported as 0.063. For I116D, the THAP1 transcriptional activity was 1.33. I116S was tested, and the THAP1 transcriptional activity was 1.3. I116A showed a THAP1 transcriptional activity of 1. For P212Y, the THAP1 transcriptional activity was 1.42. With K158H the THAP1 transcriptional activity was 0.822. K158D gave a THAP1 transcriptional activity of 0.831. K70L gave a THAP1 transcriptional activity of 0.121. A115F was tested, and the THAP1 transcriptional activity was 0.278. With A115R the THAP1 transcriptional activity was 0.409. K90R gave a THAP1 transcriptional activity of 0.598. With T138W the THAP1 transcriptional activity was 0.363. D88K was tested, and the THAP1 transcriptional activity was 1.56. D88E showed a THAP1 transcriptional activity of 1.04. Work on D88I yielded a THAP1 transcriptional activity of 0.371. Work on L177C yielded a THAP1 transcriptional activity of 0.369. In the case of V156S, the THAP1 transcriptional activity is reported as 0.331. V156D was tested, and the THAP1 transcriptional activity was 0.153. With K161L the THAP1 transcriptional activity was 0.441. K161N gave a THAP1 transcriptional activity of 0.475. With R175Q the THAP1 transcriptional activity was 0.653. Work on R175F yielded a THAP1 transcriptional activity of 0.33. For R175W, the THAP1 transcriptional activity was 0.507. S21C was tested, and the THAP1 transcriptional activity was 0.0926. With S21Y the THAP1 transcriptional activity was 0.109. R146I was tested, and the THAP1 transcriptional activity was 0.358. Variant R146Y has a THAP1 transcriptional activity of 0.539. In the case of E157S, the THAP1 transcriptional activity is reported as 1.39. Variant E157Q has a THAP1 transcriptional activity of 0.766. F132Y showed a THAP1 transcriptional activity of 0.392. N12E gave a THAP1 transcriptional activity of 0.111. N12I gave a THAP1 transcriptional activity of 0.0667. In the case of N12P, the THAP1 transcriptional activity is reported as 0.0735. Variant P107E has a THAP1 transcriptional activity of 1.58. Work on P107K yielded a THAP1 transcriptional activity of 1.6. P107A was tested, and the THAP1 transcriptional activity was 1.2. P107C showed a THAP1 transcriptional activity of 0.851. In the case of P107Q, the THAP1 transcriptional activity is reported as 1.2. F186Y was tested, and the THAP1 transcriptional activity was 1.36. For F186A, the THAP1 transcriptional activity was 1.67. F186C was tested, and the THAP1 transcriptional activity was 2.01. In the case of E74M, the THAP1 transcriptional activity is reported as 0.293. In the case of E74Q, the THAP1 transcriptional activity is reported as 1.17. E74L gave a THAP1 transcriptional activity of 0.384. With E74C the THAP1 transcriptional activity was 0.522. Work on E74I yielded a THAP1 transcriptional activity of 0.327. E74F was tested, and the THAP1 transcriptional activity was 1.09. Work on A38M yielded a THAP1 transcriptional activity of 0.788. A38S gave a THAP1 transcriptional activity of 0.593. Variant A38Q has a THAP1 transcriptional activity of 0.891. Variant F206Y has a THAP1 transcriptional activity of 1.21. E95Q gave a THAP1 transcriptional activity of 1.81. E95P was tested, and the THAP1 transcriptional activity was 1.22. K43H showed a THAP1 transcriptional activity of 0.626. With K43Y the THAP1 transcriptional activity was 0.365. For C33Q, the THAP1 transcriptional activity was 0.193. L180N showed a THAP1 transcriptional activity of 0.473. With V40P the THAP1 transcriptional activity was 0.128. In the case of V40C, the THAP1 transcriptional activity is reported as 0.665. V40M was tested, and the THAP1 transcriptional activity was 0.853. For C83M, the THAP1 transcriptional activity was 0.953. C83N was tested, and the THAP1 transcriptional activity was 1.13. In the case of C83G, the THAP1 transcriptional activity is reported as 1.18. For Q187A, the THAP1 transcriptional activity was 1.21. With Q187T the THAP1 transcriptional activity was 0.99. L72K was tested, and the THAP1 transcriptional activity was 0.0937. S52N gave a THAP1 transcriptional activity of 0.469. Work on P30Q yielded a THAP1 transcriptional activity of 0.583. P30T showed a THAP1 transcriptional activity of 0.349. C10I showed a THAP1 transcriptional activity of 0.0687.
